One may read the stoichiometry N as the number of molecules, sites or subunits per partner or assembly.

Results on two molecules are retold here after paper PMC6525047.

One data set addresses T1, RIPLET (human), Q8IUD6.
T1 chain: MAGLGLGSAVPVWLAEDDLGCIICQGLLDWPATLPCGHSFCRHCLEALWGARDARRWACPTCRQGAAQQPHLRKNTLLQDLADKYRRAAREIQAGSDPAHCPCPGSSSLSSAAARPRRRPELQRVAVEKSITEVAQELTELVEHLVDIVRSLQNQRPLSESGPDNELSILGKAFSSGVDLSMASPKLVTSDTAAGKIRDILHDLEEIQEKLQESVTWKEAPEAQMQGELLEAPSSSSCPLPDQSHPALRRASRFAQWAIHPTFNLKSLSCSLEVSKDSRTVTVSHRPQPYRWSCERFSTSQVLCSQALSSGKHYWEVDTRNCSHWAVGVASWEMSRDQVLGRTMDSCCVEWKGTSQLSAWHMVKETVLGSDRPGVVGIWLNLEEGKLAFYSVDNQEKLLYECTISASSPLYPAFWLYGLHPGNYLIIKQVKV
The data set is described as follows: SEC-MALS. The settings on record: remark: other sources report otherwise. A general note: Size exclusion chromatography separates by hydrodynamic size, large species first.

For the next data set, the target named is T2, RIG-IdeltaN;RIPLET (human;human, UniProt O95786;Q8IUD6 230-925;1-432, |).
T2 sequence 1: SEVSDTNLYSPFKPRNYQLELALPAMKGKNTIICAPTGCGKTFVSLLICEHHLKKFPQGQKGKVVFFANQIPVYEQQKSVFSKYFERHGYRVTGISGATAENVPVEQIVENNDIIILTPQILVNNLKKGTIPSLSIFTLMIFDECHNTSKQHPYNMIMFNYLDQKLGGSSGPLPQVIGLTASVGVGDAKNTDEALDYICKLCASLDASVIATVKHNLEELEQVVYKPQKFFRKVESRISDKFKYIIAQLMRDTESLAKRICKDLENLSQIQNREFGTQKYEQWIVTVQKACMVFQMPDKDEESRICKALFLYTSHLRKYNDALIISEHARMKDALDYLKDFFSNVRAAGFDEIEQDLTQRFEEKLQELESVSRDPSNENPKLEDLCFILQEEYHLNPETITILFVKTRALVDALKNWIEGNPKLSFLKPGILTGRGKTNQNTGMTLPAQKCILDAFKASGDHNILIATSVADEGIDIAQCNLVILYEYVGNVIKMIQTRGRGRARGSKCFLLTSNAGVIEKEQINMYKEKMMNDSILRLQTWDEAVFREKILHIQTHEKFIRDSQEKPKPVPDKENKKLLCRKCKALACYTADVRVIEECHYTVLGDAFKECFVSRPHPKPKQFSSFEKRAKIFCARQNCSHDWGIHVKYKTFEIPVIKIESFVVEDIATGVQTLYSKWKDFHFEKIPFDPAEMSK
T2 sequence 2: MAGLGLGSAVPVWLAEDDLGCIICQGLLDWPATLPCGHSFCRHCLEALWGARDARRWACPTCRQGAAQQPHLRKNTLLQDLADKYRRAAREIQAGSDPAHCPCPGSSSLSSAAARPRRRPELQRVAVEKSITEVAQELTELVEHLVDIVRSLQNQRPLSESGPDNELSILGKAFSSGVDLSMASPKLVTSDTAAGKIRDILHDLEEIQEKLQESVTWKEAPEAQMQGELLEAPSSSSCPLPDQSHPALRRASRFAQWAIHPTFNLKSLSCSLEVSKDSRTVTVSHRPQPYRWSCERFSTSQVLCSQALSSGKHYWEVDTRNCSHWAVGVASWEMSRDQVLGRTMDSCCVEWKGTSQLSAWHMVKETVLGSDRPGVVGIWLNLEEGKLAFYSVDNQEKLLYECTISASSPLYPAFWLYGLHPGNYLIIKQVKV
Kind of data set: EMSA.

B1: RIPLET, Q8IUD6 1-432 (enzyme)
chain: MAGLGLGSAVPVWLAEDDLGCIICQGLLDWPATLPCGHSFCRHCLEALWGARDARRWACPTCRQGAAQQPHLRKNTLLQDLADKYRRAAREIQAGSDPAHCPCPGSSSLSSAAARPRRRPELQRVAVEKSITEVAQELTELVEHLVDIVRSLQNQRPLSESGPDNELSILGKAFSSGVDLSMASPKLVTSDTAAGKIRDILHDLEEIQEKLQESVTWKEAPEAQMQGELLEAPSSSSCPLPDQSHPALRRASRFAQWAIHPTFNLKSLSCSLEVSKDSRTVTVSHRPQPYRWSCERFSTSQVLCSQALSSGKHYWEVDTRNCSHWAVGVASWEMSRDQVLGRTMDSCCVEWKGTSQLSAWHMVKETVLGSDRPGVVGIWLNLEEGKLAFYSVDNQEKLLYECTISASSPLYPAFWLYGLHPGNYLIIKQVKV
In turn, B1 registered a stoichiometry N with RIPLET (human), Q8IUD6 of 2.

B2: 21 bp dsRNA (dsRNA)
RNA 1: GAGUCACGACGUUGUAAAAAA
RNA 2: UUUUUUACAACGUCGUGACUC
modifications: 5'ppp
For the molecule B2, the binding result with RIG-IdeltaN;RIPLET is “binds”.
